Test results from patent publication US20040002582A1 (University of Texas, published 2004).
No end group written: not given here.

Experiments:
[1] = molecular target: T1, POW-E-D3 (Powassan virus, UniProt Q04538 579-674)
T1 sequence: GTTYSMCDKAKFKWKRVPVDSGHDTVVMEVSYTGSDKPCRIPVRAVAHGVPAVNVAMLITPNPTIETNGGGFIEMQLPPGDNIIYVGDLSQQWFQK

[2] = molecular target: T2, LGT virus (Langat virus, UniProt P29837 281-776); experiment: cell-based or functional assay
T2 sequence: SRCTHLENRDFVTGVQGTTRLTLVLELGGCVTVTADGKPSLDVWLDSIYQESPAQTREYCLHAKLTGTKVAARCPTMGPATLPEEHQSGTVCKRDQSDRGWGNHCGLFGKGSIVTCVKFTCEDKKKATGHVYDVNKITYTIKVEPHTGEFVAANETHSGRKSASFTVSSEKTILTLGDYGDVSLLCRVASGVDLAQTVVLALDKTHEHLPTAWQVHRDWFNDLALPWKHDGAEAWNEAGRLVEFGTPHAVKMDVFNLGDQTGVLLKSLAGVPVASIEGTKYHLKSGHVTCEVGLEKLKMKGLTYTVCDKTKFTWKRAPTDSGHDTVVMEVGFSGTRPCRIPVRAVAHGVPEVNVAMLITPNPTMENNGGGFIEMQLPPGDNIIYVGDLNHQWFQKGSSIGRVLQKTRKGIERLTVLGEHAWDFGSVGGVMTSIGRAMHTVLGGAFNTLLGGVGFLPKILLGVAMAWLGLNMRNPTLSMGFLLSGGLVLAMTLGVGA

B1: MP-100 (designed binder)
peptide: RCCHPQCKEGKKCR
modifications: not fully specified; cysteine pairing not given here
level of enrichment (ratio of enriched signal/library signal) [1]: > 1.5 ratio of enriched signal/library signal | reduction of viral titer in Vero cells at 24 hpi [2]: ~300 fold | reduction of viral titer in Vero cells at 36 hpi [2]: ~100 fold
